The supplement of paper PMC9170038

Tested on: MS2 coat protein
Experiment: apparent KD of MS2 coat protein; designed switch direction (-1 OFF switch, 1 ON switch): 1; higher = weaker reporter binding
Method in brief: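 Apparent KD, taken as the median over clusters for each design, was obtained by curve-fitting normalised cluster fluorescence. Designed RNA switches had been transcribed on Illumina chips by stalled E. coli RNA polymerase and titrated with SNAP-549-labelled MS2 coat protein, doubling from 0.7 or 1.5 nM to 3 µM.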

[1] = input ligand: microRNA oligo, concentration not stated
[2] = Eterna round: R95, input ligand: FMN 200 uM
[3] = Eterna round: R95, input ligand: microRNA oligo, concentration not stated
[4] = Eterna round: R95, input ligand: none

Sequence | apparent KD of MS2 coat protein (input ligand: FMN 200 uM) | apparent KD of MS2 coat protein [1] | apparent KD of MS2 coat protein (input ligand: none) | apparent KD of MS2 coat protein [2] | apparent KD of MS2 coat protein [3] | apparent KD of MS2 coat protein [4]
CGCCAGAGAACAGGAUAUGGGCCGCGGCCUAAGGGCUGCUAACUCACAUGAGGAUCACCCAUGUCCCAGAAGGGUUCCUGGCUG [Gexeso] (Eterna round: R96, puzzle: Same State NG 2) | 602 nM | 31.4 nM | 45.8 nM |  |  | 
AAUUUAAUACAUGAGGAUCACCCAUGUAAAUUAAUUAAGAUCAAGGAUAUCAGCUCGAAUAGAGCUGAGAAGGUGAUCACAUGU [SSNG3/19-A1] (Eterna round: R96, puzzle: Same State NG 3) |  | 244 nM |  |  |  | 
AAGAGAGAAAUACAGGAUAUGAGGAAAGGAACAUGAGGAUCACCCAUGUAAGAGAAAGGGAAAGAUCAGAAGGGUAGAGAAGAGA [JR_SS2_Sub001] (puzzle: Same State 2) |  |  |  | 76.6 nM | 66.1 nM | 264 nM
UGGCUCAGAGCAGGAUAUAUGUGGUCACAUGAGGAUCACCCAUGUCUCGAGCUUCGGCUCGAGGCAUAGAAGGGCUCUGAGCCA [SSNG2/5-B2] (Eterna round: R96, puzzle: Same State NG 2) | 550 nM | 48 nM | 58.1 nM |  |  | 
UUGGUUGUCGUAGGAUAUGUAGGAUAUGCCUACAUGAGGAUCACCCAUGUUCGCAUGGCAGAAGGACAGAAGGACGAUGACCAU [pwkr ssNG2 2FMN + 1F5.19] (Eterna round: R96, puzzle: Same State NG 2) | 13 nM | 20.5 nM | 50.2 nM |  |  | 
AACUAUCUAUCUGAGGAUAUCAUGAAAUAAACAUGAGGAUCACCCAUGUGCAGGAAAACUGCAUAUGAGAAGGCAGAUAGAUUGA [salish99_ss2_r3_021] (puzzle: Same State 2) |  |  |  | 66.6 nM | 1250 nM | 2000 nM
AGGUUCGUGCUAGGAUAUCUAGGAUAUGGACGAGGAUUACCCGAGCAGGAUUACCGCACCAGAGGAGAGAAGGAGCAACAAGAG [pwkr ssNG2 2F5 2FMN.13] (Eterna round: R96, puzzle: Same State NG 2) | 0.959 nM | 5.01 nM | 420 nM |  |  | 
GUAGGACAUGAGGAUCACCCAUGUAGGAGGGAACGAGGAUAUGUGAUUAGCGAGGAGAGGACAGAAGGCGUGGUAG [JR_SS1_Sub025] (puzzle: Same State 1) |  |  |  | 18.7 nM | 18.3 nM | 21.3 nM
GCGAAAGCGGUAGGAUAUCUAGGAUAUGGGAAGAGCUAAGCUUGGAAGUCACUUCACCCAGAAGGAGAGAAGGACACCGAAAGG [pwkr ssNG2 2FMN + F9.3] (Eterna round: R96, puzzle: Same State NG 2) | 2990 nM | 302 nM | 390 nM |  |  | 
GCGAAGAGGUAAGGAUAUUCAUGGCGUAGACAUGAGGAUCACCCAUGUAGGAGACGAAUUAAAAGGGAGAAGGUACCAGGACGC [AK SSNG2-V2-16] (Eterna round: R96, puzzle: Same State NG 2) | 50.1 nM | 298 nM | 286 nM |  |  | 
GGUACCAACACAGGAUAUGCUAUCCUUUGGGUAGCAGAAGGGUGAAACAUGAGGAUCACCCAUGUGGUGCCAGGGCGUGAGCCC [JL SSNG1 1.93] (Eterna round: R96, puzzle: Same State NG 1) | 108 nM | 854 nM | 2190 nM |  |  | 
GUUACAUGAGGAUCACCCAUGUAUGUGUGGGAGUAAGUGUCUUAGGAUAUCUGUUAUUUUAUUUAAGAGAAGGAAGAUUGUUGU [JMF's solution 39] (Eterna round: R96, puzzle: Same State NG 3) | 133 nM | 68.9 nM | 80.7 nM |  |  | 
CUGAAAUGUCAAGGAUAUCACGUCGAUUAGACGUGAGAAGGUGAUCUACACAUGAGGAUCACCCAUGUGUUACAUGGGAGUCAG [Brourd's SSNG1/1-A2 mod 17] (Eterna round: R96, puzzle: Same State NG 1) | 325 nM | 448 nM | 601 nM |  |  | 
ACGUGGAUAUCACAGGAUAUACUCACAACUACAUGAGGAUCACCCAUGUAGCGGUAUUCCGGUGCGUAGAAGGGUGAUGGACCAC [Same State 2 - Mod of Artece v.3] (puzzle: Same State 2) |  |  |  | 12.1 nM | 12 nM | 11.4 nM
AGUCCAGCCUGAGCUGGACAAAAGCAUGUACAUGAGGAUCACCCAUGUUCAUGUACAAGCUUUUUGCUCGUCUUGCA [salish99_208a_r3_104x] (puzzle: Sensor for hsa-mir-208a) |  |  |  | 450 nM | 15 nM | 415 nM
GCCAACGCAUGAGGAUAUGGCACCUUAUUGGUGCCAGAAGGCAUGUGUAUUCACAUGAGGAUCACCCAUGUAUUAUAGUUGGCA [Fiskers NG1ss - 16] (Eterna round: R96, puzzle: Same State NG 1) | 18.2 nM | 132 nM | 176 nM |  |  | 
UUUGGGUGGCUGGAGGAUAUCCUGGUUGUUACAUGAGGAUCACCCAUGUGCCGCGCGGUUCGCGAGGAGAAGGCUGGCGGCCGUU (Eterna round: R96, puzzle: Same State 2) | 42.4 nM | 74.4 nM | 154 nM |  |  | 
UAAAAGAAUUAAGGAUAUUGAAUACAUAUGUUUAACAUGAGGAUCACCCAUGUGGGUUGCGGUAUCGAGAAGGUAAAAUAAUAG [Mat - Same State NG 2 - JL mod - D6] (Eterna round: R96, puzzle: Same State NG 2) | 163 nM | 110 nM | 151 nM |  |  | 
UAGUGCGUUAGAGGAUAUUCAAGGUGAAAAAAAAAUACAUGAGGAUCACCCAUGUAAAAACAUGAGGAGAAGGCUGAUGUGCUA [Omei SS(NG)2 A] (Eterna round: R96, puzzle: Same State NG 2) |  | 38 nM |  |  |  | 
GCUGCAAUUAACGCCUACAUGAGGAUCACCCAUGUAUGUAGGCAGGAUAUCGUUUGCUUUGCAAACGAGAAGGGCCGUAGUAGC [JL SSNG3 1.12] (Eterna round: R96, puzzle: Same State NG 3) | 22.8 nM | 37.6 nM | 63.1 nM |  |  | 
CCGUAGAUGGUAGGAUAUGGAGCCUUAUUGGCUCCAGAAGGAUCUAAAACAUGAGGAUCACCCAUGUCGGCGGUCAAUAGACCG [Eli NG1ss - 83] (Eterna round: R96, puzzle: Same State NG 1) | 67.2 nM | 65.1 nM | 107 nM |  |  | 
GUUACAUGAGGAUCACCCAUGUAUGUGUGGGAGUAAGUGUCUUAGGAUAUCUAGUAUUUAAUGUAAGAGAAGGAAGAUUGUUGU [JMF's solution 64] (Eterna round: R96, puzzle: Same State NG 3) | 130 nM | 106 nM | 96.1 nM |  |  | 
GAAUUAAGAGUAGGAUAUGUGGGCGAGCUGCCACCCACAUGAGGAUCACCCAUGUAUGGACACUCACAGAAGGGCUUAUUCAAC [Eternabot solution 37] (Eterna round: R96, puzzle: Same State NG 2) | 68.8 nM | 60.5 nM | 64.8 nM |  |  | 
GGUAGGUUACUACCAAUCUACAUGAGGAUCACCCAUGUGUGGAAGGAUAUGGUACCUAUUUGGUACCAGAAGGUCCAAUUAAUU [Fiskers NG3ss - 7] (Eterna round: R96, puzzle: Same State NG 3) | 179 nM | 64.7 nM | 153 nM |  |  | 
CUGCAACAUGAGGAUCACCCAUGUAACCCAAUUAUAGGAUAUGUGAUGGUGAUCGACAUGACAGAAGGGUGAUUGG [Arinra] (Eterna round: R96, puzzle: Same State 1) | 174 nM | 29.7 nM | 41.8 nM |  |  | 
UAGAAACAUGAGGAUCACCCAUGUGUCAAAGACAUAGGAUAUCGUGACCGGCGCCGGACACGAGAAGGGUGGUAAA [Quingees] (puzzle: Same State 1) |  |  |  | 387 nM | 209 nM | 386 nM
GCACUGGCGGUAGGAUAUCUAGGAUAUGGGAAAGACUAAGUCUGUAGGUCACCUAACCCAGAAGGAGAGAAGGACCCUGUAAGG [pwkr ssNG2 2FMN + F9.22] (Eterna round: R96, puzzle: Same State NG 2) | 6.55 nM | 1.33 nM | 18.1 nM |  |  | 
